# Test results: US20230203156A1 (WILLIAM ROBERT ARATHOON LIVING TRUST DATED AUGUST 29 2016, published 2023)
# Where two headings read alike, the source gives them in different places.
# Experiments:
# [1] = target: T1, human MDR1 (multidrug resistance protein 1) (human, UniProt P08183 1-1280); test: flow cytometry
# T1 construct: also called ABCB1; P-glycoprotein 1
# [2] = target: T2, cynomolgus MDR1 (Macaca fascicularis) (Macaca fascicularis (cynomolgus), UniProt P08183 1-1280 (human entry)); test: flow cytometry, 293T cells transfected with cynomolgus MDR1
# T2 construct: also called cB1; cynomolgus ABCB1
# [3] = target: T1, human MDR1 (multidrug resistance …); test: flow cytometry, 293T cells overexpressing human MDR1
# [4] = target: T1, human MDR1 (multidrug resistance …); test: flow cytometry, 293T cells stably expressing human ABCB1 (293T_ABCB1_OX)
# [5] = target: T1, human MDR1 (multidrug resistance …); test: cell-based or functional assay
# [6] = target: T1, human MDR1 (multidrug resistance …); test: binding to C6 cells overexpressing human ABCB1 (FIGS. 17A-17B)
# [7] = target: T2, cynomolgus MDR1 (Macaca fascicularis); test: flow cytometry
# [8] = target: T1, human MDR1 (multidrug resistance …); test: cell-based or functional assay; remark: listed apart in the source
# [9] = target: T2, cynomolgus MDR1 (Macaca fascicularis); test: flow cytometry on cells expressing cynomolgus MDR1
# human CD47 = target: T3, human CD47 (human, UniProt Q08722 19-323); test: binding to C6 cells overexpressing human CD47 (FIGS. 17A-17B)
# T3 construct: whole, on cells; Overexpressed on rat C6 cells, or endogenous on human tumour cell lines; also called KT14; hKT14
binder,measurement,setting,value
"B1.129.huH1-huL1(KV3) (antibody, human IgG1, V domains shown, Humanized B1.129; Human IgG1/kappa constant regions; also called B1.129.hz1) VH: EVQLVQSGAEVKKPGASVKVSCKASGYTFSTYVIHWVRQAPGQGLEWIGYIYPYNDYTKYNEKFKDRATLTSDKSTSTAYMELRSLRSDDTAVYYCSRAYYGNLVGYGVDYWGQGTTVTVSS VL: EIVLTQSPATLSLSPGERATLSCRASSSVSFIYWYQQKPGQSPRPWIFATSNLASGVPARFSGSGSGTDYTLTISSLEPEDFAVYYCHQWGSNLPTFGGGTKLEIK",binding result,[1],binds
same,binding result,[2],binds
"B1.129.huH1-huL1(KV1) (antibody, human IgG1, V domains shown, Humanized B1.129; Human IgG1/kappa constant regions; also called B1.129.hz2) VH: EVQLVQSGAEVKKPGASVKVSCKASGYTFSTYVIHWVRQAPGQGLEWIGYIYPYNDYTKYNEKFKDRATLTSDKSTSTAYMELRSLRSDDTAVYYCSRAYYGNLVGYGVDYWGQGTTVTVSS VL: DIQLTQSPSSLSASVGDRVTITCRASSSVSFIYWYQQKPGKSPKPWIFATSNLASGVPSRFSGSGSGTDYTLTISSLQPEDFATYYCHQWGSNLPTFGGGTKLEIK",binding result,[2],no binding
same,binding result,[3],no binding
"BisAb-1 (15D3 HC-Hz1 DD hIgG1 / KT14 IgG1 KK / B1-28 VL humaniz) (bispecific antibody, The 15D3 Hz1 VH is fused to human IgG1 Fc with K392D and K409D (EU)) VH: EVQLVESGGVVVQPGGSLRLSCAASGFTFSRYTMSWVRQAPGKGLEWVATISSGGGQTYYPDSVKGRFTVSRDNSKNSLYLQMNSLRTEDTALYYCARYGAGDAWFAYWGQGTLVTVSS heavy: not shown VL: DVVLTQSPLSLPVTLGQPASISCRSSQNIVHSTGNTYLDWYQQRPGQSPRLLIYKVSNRFSGVPDRFSGSGSGTDFTLKISRVEAEDVGVYFCFQGSHIPRTFGQGTKLEIK",EC50,[4],118 nM
same,IC50 of vincristine on N6/ADR cells with antibody,[5],0.0064 nM
"15D3DD KT14KK B1.28.huL2 LC (bispecific antibody, human IgG1) heavy 1: not shown heavy 2: not shown VL: DVVLTQSPLSLPVTPGEPASISCRSSQNIVHSTGNTYLDWYLQKPGQSPQLLIYKVSNRFSGVPDRFSGSGSGTDFTLKISRVEAEDVGVYYCFQGSHIPRTFGQGTKLEIK",binding result,[6],binds
"B1.129 (antibody, human IgG1, V domains shown, expressed with human IgG1 heavy and human kappa light constant regions; also called KNJY B1-129; KB1.129) VH: EVQLQQSGPELVKPGASVKMSCKASGYTFSTYVIHWVKQKPGQGLEWIGYIYPYNDYTKYNEKFKDKATLTSDKSSSTAYMEIRSLTSEDSAVYYCSRAYYGNLVGYGVDYWGQGTSVTVSS VL: QIVLTQSPAILPASPGEKVTMTCRASSSVSFIYWYQQRPGSSPKPWIFATSNLASGVPARFSGSGSGTSYSLTISRVEAEDAATYYCHQWGSNLPTFGGGTKLEIK",binding result,[7],binds
same,IC50 of vincristine on N6/ADR cells with antibody,[8],0.0132 nM
"B1.261 (antibody, human IgG1, V domains shown, expressed with human IgG1 heavy and human kappa light constant regions; also called KNJY B1-261; KB1.261) VH: QVQLKESGPGLVAPSQSLSITCTVSGFSLTSYGVHWVRQPPGKGLEWLVVIWSDGSTTYNSALKSRLSISKDNSKSQVFLKMNSLQIDDTAMYYCARHGRWLLQRGGAMDYWGQGTSVTVSS VL: DVVMTQAPKFMSTSVGDRVSVTCRASQNVGSYIAWYQQKLGQSPKALIYSASYRCSGVPDRFTGSGAGTDFTLTIRNVQSEDLAEYFCQQYNSYPLTFGGGTKLEIK",binding result,[9],binds
same,IC50 of vincristine on N6/ADR cells with antibody,[8],0.0038 nM
"15D3 (antibody, V domains shown, Known anti-MDR1 antibody; also called KPA01; 15D3 hybridoma) VH: EVKVVESGGVLVRPGGSLKLSCAASGFTFSRYTMSWVRQTPEKRLEWVATISSGGGNTYYPDSVKGRFTVSRDNAMSSLYLQMSSLRSEDTALYYCARYGAGDAWFAYWGQGTLVTVSS VL: DVLMTQTPLSLPVSLGDQASISCRSSQSIVHSTGNTYLEWYLQKPGQSPKLLIYKVSNRFSGVPDRFSGSGSGTDFTLKISRLEAEDLGVYYCFQGSHFPRTFGGGTRLEIK",EC50,[4],14.6 nM
same,IC50 of vincristine on N6/ADR cells with antibody,[5],0.466 nM
"15D3DD KT14KK B1.89v1 LC (bispecific antibody, human IgG1, also called 15D3DD/KT14KK/89v1) heavy 1: not shown heavy 2: not shown VL: DVLMTQTPLSLPVSLGDQASISCRSSQTIVHSNGNTYLEWYLQKPGQSPKLLIYKVSKRFSGVPDRFSGSGSGTDFTLKISRVEAEDLGVYYCFQASHFPRTFGGGTKLEIK",binding result,[6],binds
same,binding result,human CD47,binds
"15D3DD KT14KK MRK16v5 LC (bispecific antibody, human IgG1) heavy 1: not shown heavy 2: not shown VL: DIVMTQTPLSSPVTLGQPASISCRSSQSIVYSNGNTYLEWYQQKPGQPPRLLIYKISNRFSGVPDRFSGSGAGTDFTLKISRVEAEDVGVYYCFQASHFPRTFGGGTKLEIK",binding result,[6],binds
same,binding result,human CD47,binds
